Test results from patent US6531296B1, “Nuclear tyrosine kinase Rak” (The University of North Carolina at Chapel Hill, priority 1995, dated 2003).
No end group written: not given here.

Biological target: T1, CDC2 (Homo sapiens, UniProt P06493)
T1 construct: incubated with immunoprecipitated CDC2; endogenous in cells
Assay: In vitro kinase assay of immunoprecipitated CDC2 with Histone H1 as exogenous substrate
Type: biochemical
Method: The 110 N-terminal amino acids of Rak were produced as a GST fusion protein (RAKNT:GST) and incubated with immunoprecipitated CDC2, and subjected to an in vitro kinase assay with Histone H1 added as an exogenous substrate, and analyzed by SDS-PAGE. […] This fusion protein was incubated with immunoprecipitated CDC2, and subjected to an in vitro kinase assay with Histone H1 added as an exogenous substrate, and analyzed by SDS-PAGE.
The CDC2 binding domain of RAK appears to be between amino acids 86-110. Since the binding of RAK to CDC2 is exceptionally strong, the biological function of this interaction was explored.

T1 sequence (P06493 whole entry): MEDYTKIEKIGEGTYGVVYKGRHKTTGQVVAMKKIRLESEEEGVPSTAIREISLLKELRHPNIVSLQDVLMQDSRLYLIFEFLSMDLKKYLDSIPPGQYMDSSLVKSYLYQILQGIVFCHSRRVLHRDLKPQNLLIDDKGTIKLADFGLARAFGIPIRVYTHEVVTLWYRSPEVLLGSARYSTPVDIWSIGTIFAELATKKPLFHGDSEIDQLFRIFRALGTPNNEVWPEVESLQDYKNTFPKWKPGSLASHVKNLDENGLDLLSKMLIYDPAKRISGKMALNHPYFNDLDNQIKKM

inhibition of CDC2 histone H1 phosphorylation activity: reproducibly attenuated
Sequence: KRRDGSSQQLQ [SEQ ID NO:4]
